Data taken from PMC11376147 (Chemical Science, 2024).

Target: SARS-CoV-2 Spike glycoprotein (SARS-CoV-2) (UniProt P0DTC2)
Assay: SPR

Row | Substance | SPR response without ligand (the pair that is blocked) [RU]
1 | DC-SIGN entire extracellular domain (ECD) (from UniProt Q9NNX6 59-404) (receptor) | 2500
2 | L-SIGN entire extracellular domain (ECD) (from UniProt Q9H2X3 71-399) (receptor) | 2000
